From patent publication US20190218308A1 (INNATE PHARMA, published 2019)
Substitutions are numbered along the chain they refer to.

Legend:
[1] = biological target: T1, human CD39 (NTPDase1, ENTPD1), membrane-bound, on cells (human, UniProt P49961 1-510); assay: flow cytometry on Ramos lymphoma cells, first set of experiments
T1 construct: Expressed on CHO cells, Hek-293T cells (wild type) or endogenous on Ramos cells; also called huCD39; CHO-huCD39
T1 sequence: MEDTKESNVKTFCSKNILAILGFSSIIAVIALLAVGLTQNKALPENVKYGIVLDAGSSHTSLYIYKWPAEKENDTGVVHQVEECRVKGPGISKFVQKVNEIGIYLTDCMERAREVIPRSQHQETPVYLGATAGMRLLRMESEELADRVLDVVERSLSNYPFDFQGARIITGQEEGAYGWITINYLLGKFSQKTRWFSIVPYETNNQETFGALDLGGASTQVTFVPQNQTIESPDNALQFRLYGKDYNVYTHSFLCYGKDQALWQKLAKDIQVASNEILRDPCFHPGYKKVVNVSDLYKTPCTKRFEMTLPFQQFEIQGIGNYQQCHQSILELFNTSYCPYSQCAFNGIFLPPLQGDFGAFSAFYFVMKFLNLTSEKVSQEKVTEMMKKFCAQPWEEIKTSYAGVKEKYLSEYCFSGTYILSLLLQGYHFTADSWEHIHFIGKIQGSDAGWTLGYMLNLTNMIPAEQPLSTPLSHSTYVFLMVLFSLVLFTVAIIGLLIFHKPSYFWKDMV
Procedure: (§1) Cells were incubated with various concentration of unlabeled anti-CD39 antibody from 30 μg/ml to 5×10⁻⁴ μg/ml, for 30 minutes at 4° C. After washes, cells were incubated with Goat anti-mouse H+L labeled secondary antibody for 30 min at 4° C.

[2] = biological target: T1, human CD39 (NTPDase1, ENTPD1), …; assay: flow cytometry on Ramos lymphoma cells, second set of experiments
Procedure: as §1

[3] = biological target: T2, Human CD39-L2, also known as NTPDase6 or ENTPD6 (human, UniProt O75354 61-484, limits assumed); assay: ELISA on coated recombinant human CD39-L2 (panel huCD39 L2)
T2 construct: Recombinant protein coated in ELISA
T2 sequence: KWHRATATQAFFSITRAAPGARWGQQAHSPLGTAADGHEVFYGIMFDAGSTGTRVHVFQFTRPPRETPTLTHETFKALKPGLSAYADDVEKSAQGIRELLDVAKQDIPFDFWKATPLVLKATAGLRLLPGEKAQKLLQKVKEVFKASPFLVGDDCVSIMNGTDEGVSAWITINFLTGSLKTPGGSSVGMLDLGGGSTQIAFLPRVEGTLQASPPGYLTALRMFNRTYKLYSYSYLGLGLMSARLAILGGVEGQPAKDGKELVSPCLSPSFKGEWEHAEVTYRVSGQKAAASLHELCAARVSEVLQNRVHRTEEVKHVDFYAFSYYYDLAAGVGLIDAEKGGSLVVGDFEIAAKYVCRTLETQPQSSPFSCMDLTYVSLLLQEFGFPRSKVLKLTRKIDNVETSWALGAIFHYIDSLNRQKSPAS
Procedure: Wells were washed in TBS Tween 20, and further saturated 2H at RT in TBS Blocking buffer. Dose range concentration of primary antibody was incubated in TBS blocking buffer for 2 h at RT. Wells were washed in TBS Tween 20. […] Optical density was measured on Enspire™ at OD=450.

murine CD39 on CHO cells = biological target: T3, murine CD39 on CHO cells (murine, UniProt P55772 1-510); assay: flow cytometry titration on CHO cells expressing murine CD39 (panel CHO-moCD39)
T3 construct: whole, on cells; also called CHO-moCD39; mouse CD39
T3 sequence (looked up): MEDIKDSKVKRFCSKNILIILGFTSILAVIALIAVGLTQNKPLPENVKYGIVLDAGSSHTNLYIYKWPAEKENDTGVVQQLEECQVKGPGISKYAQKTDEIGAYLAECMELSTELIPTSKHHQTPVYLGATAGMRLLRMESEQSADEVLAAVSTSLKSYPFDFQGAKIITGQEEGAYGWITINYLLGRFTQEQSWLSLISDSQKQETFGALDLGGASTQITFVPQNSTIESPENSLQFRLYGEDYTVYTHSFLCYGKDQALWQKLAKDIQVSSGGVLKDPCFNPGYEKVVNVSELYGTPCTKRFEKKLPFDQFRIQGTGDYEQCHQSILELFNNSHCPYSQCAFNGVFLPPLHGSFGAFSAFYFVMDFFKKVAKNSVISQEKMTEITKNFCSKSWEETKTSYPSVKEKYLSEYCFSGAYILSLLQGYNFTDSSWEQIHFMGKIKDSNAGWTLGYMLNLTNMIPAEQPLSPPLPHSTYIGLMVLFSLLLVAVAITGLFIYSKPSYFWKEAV
Procedure: as §1

CD39 mutant 15 = biological target: T4, CD39 mutant 15 (human, UniProt P49961 1-510); assay: flow cytometry, Hek-293T cells transfected with CD39 mutant 15 (panel M15), table under the panel; unstained (US) 8,98; antibody concentration not shown
T4 construct: Expressed on Hek-293T cells; also called M15
T4 chain: T1 sequence with K87A, E100A, D107A
Procedure: Mutants were transfected in Hek-293T cells, as shown in the table 1, using numbering of SEQ ID NO: 2. […] Mutant 19 includes substitutions at residues R138, M139 and E142.
Mutants were transfected in Hek-293T cells, as shown in the table 1, using numbering of SEQ ID NO: 2. Dose-ranges of test antibodies (10-2.5-0.625-0.1563-0.0391-0.0098-0.0024-0.0006 μg/ml) are tested on the 20 generated mutants by flow cytometry.

EC50 [1]: 0.16 µg/mL
EC50 [2]: 0.19 µg/mL
binding result [3]: no binding (tested: about 50 µg/ml)
binding result (murine CD39 on CHO cells): no binding (tested: about 30 µg/ml)
Median : Comp-Alexa Fluor 647-A (CD39 mutant 15): 6360
B1: antibody I-394 (antibody, human IgG1, kappa, V domains shown)
VH: EVQLQQSGPELVKPGASVKMSCKASGYTFTDYNMHWVKQSHGRTLEWIGYIVPLNGGSTFNQKFKGRATLTVNTSSRTAYMELRSLTSEDSAAYYCARGGTRFAYWGQGTLVTVSA
VL: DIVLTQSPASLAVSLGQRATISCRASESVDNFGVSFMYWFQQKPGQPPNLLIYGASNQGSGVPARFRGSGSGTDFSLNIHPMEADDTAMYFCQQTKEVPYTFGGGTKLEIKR
